{
  "source": "the RNAGym collection of RNA variant scans (doi:10.1073/pnas.2313332121)",
  "parents": {"B1": {"name": "TPR 5TU (parent)", "chain": "GGAUCUUCUCGAUCUAACAAAAAAGACAAAUCUGCCACAAAGCUUGAGAGCAUCUUCGGAUGCAGAGGCGGCAGCCUUCGGUGGCGCGAUAGCGCCAACGUUCUCAACUAUGACACGCAAAACGCGUGCUCCGUUGAAUGGAGUUUAUCAUG"}},
  "note": "Fewer inactive variants are shown than the library holds.",
  "data": [
    {"variants_of": "B1", "experiment": "polymerase ribozyme fitness, log enrichment relative to wild type (log ratio); higher = more active; in vitro selection for triplet polymerase activity", "how_it_was_run": "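Mutant libraries were PCR-built and transcribed for each subunit of a heterodimeric triplet polymerase ribozyme and selected for one round in triplicate at −7 °C, frozen, before gel excision of extended constructs and streptavidin-bead capture. Input and output libraries were Illumina-sequenced, keeping genotypes with ≥10 input reads and ≥1 read per output. Fitness is a logarithmic ratio of genotype to wild-type enrichment, in base 2, using inverse-variance-weighted replicate averages.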", "values": [
      {"variant": "A20C C54U U78A", "polymerase ribozyme fitness (log ratio)": "≤ -4.2"},
      {"variant": "A20G C54G U82A A98U U144A", "polymerase ribozyme fitness (log ratio)": -4.1},
      {"variant": "A20U A49U C93G C103U", "polymerase ribozyme fitness (log ratio)": "≤ -4.2"},
      {"variant": "A21G C57A G81C A97G U101C U135C", "polymerase ribozyme fitness (log ratio)": -1.99},
      {"variant": "A22C C51A C93G A98C C116U U135C", "polymerase ribozyme fitness (log ratio)": "≤ -4.2"},
      {"variant": "A21U C95U C99U", "polymerase ribozyme fitness (log ratio)": -0.768},
      {"variant": "A20U G50C G58U C79G G84U U90G A107G C108G", "polymerase ribozyme fitness (log ratio)": "≤ -4.2"},
      {"variant": "A21G A26C A66U C87G A115C U134C U146A", "polymerase ribozyme fitness (log ratio)": "≤ -4.2"},
      {"variant": "A20C U55A A110G", "polymerase ribozyme fitness (log ratio)": -3.9},
      {"variant": "A21U G58C A73G C85G", "polymerase ribozyme fitness (log ratio)": -1.7},
      {"variant": "A21G A41C U56G G65A G141U", "polymerase ribozyme fitness (log ratio)": -3.42},
      {"variant": "A20G A52C", "polymerase ribozyme fitness (log ratio)": -1.28},
      {"variant": "A20C C103G", "polymerase ribozyme fitness (log ratio)": -1.28},
      {"variant": "A20G U33A U55G C87A G140C", "polymerase ribozyme fitness (log ratio)": "≤ -4.2"},
      {"variant": "A20C C75A C96U C118G G141A", "polymerase ribozyme fitness (log ratio)": "≤ -4.2"},
      {"variant": "A20G C96U", "polymerase ribozyme fitness (log ratio)": -0.654},
      {"variant": "A21G G70A", "polymerase ribozyme fitness (log ratio)": -3.35},
      {"variant": "A20U A26G C27A C36U C93U A147U", "polymerase ribozyme fitness (log ratio)": "≤ -4.2"},
      {"variant": "A21G G141A", "polymerase ribozyme fitness (log ratio)": 1.12},
      {"variant": "A21C C32G G50A C93U A119U", "polymerase ribozyme fitness (log ratio)": "≤ -4.2"},
      {"variant": "A22C C27G A66U U145C", "polymerase ribozyme fitness (log ratio)": "≤ -4.2"},
      {"variant": "A20G C38A C95U C125U G140C", "polymerase ribozyme fitness (log ratio)": "≤ -4.2"},
      {"variant": "A21G A29G G83C A98U", "polymerase ribozyme fitness (log ratio)": "≤ -4.2"},
      {"variant": "A20U A29G G46C G50C A66U G83A", "polymerase ribozyme fitness (log ratio)": "≤ -4.2"},
      {"variant": "A20U C54A U56A G84C G86C C96U G117C A122U U144A A150G", "polymerase ribozyme fitness (log ratio)": "≤ -4.2"},
      {"variant": "A21U C75G G86A U101C", "polymerase ribozyme fitness (log ratio)": -4.03},
      {"variant": "A21G C51U U53A C96U G126U", "polymerase ribozyme fitness (log ratio)": -2.46},
      {"variant": "A21U A49G A98G", "polymerase ribozyme fitness (log ratio)": -0.555},
      {"variant": "A20G A37U U111G", "polymerase ribozyme fitness (log ratio)": "≤ -4.2"},
      {"variant": "A22C A39G U144C", "polymerase ribozyme fitness (log ratio)": -4.03},
      {"variant": "A22C C32U C85G C95A G100A G112C", "polymerase ribozyme fitness (log ratio)": "≤ -4.2"},
      {"variant": "A21U C36A G50U U55A C57G G62A G68U C85G C103A G128A", "polymerase ribozyme fitness (log ratio)": "≤ -4.2"},
      {"variant": "A20G G48A A119C A121U G136U", "polymerase ribozyme fitness (log ratio)": -3.51},
      {"variant": "A22C A24C U61G G88U", "polymerase ribozyme fitness (log ratio)": "≤ -4.2"},
      {"variant": "A21C A40C G94A G128U", "polymerase ribozyme fitness (log ratio)": -3.51},
      {"variant": "A20U A23C A47G U77G G84C A97U C118U", "polymerase ribozyme fitness (log ratio)": "≤ -4.2"},
      {"variant": "A21C A26C C85U A89C G136A G141A", "polymerase ribozyme fitness (log ratio)": -4.04},
      {"variant": "A21C A23G C85G G141C", "polymerase ribozyme fitness (log ratio)": -3.89},
      {"variant": "A20G G46A U55G G70A C76U G84A C96U C103G C114U G152U", "polymerase ribozyme fitness (log ratio)": "≤ -4.2"},
      {"variant": "A21C G84U U90C C116A A137C A138G", "polymerase ribozyme fitness (log ratio)": "≤ -4.2"},
      {"variant": "A21U A41G", "polymerase ribozyme fitness (log ratio)": 1.06},
      {"variant": "A20G C27G G42C G58C G68A A121C C125U G140A", "polymerase ribozyme fitness (log ratio)": "≤ -4.2"},
      {"variant": "A21C G59A A113G", "polymerase ribozyme fitness (log ratio)": -1.92},
      {"variant": "A21C A24U G46U C57U C93U", "polymerase ribozyme fitness (log ratio)": -1.65},
      {"variant": "A21G G84C A113U", "polymerase ribozyme fitness (log ratio)": -4.09},
      {"variant": "A21G G42A G50C C93G G136U", "polymerase ribozyme fitness (log ratio)": "≤ -4.2"},
      {"variant": "A21U C35U C129U", "polymerase ribozyme fitness (log ratio)": -0.6},
      {"variant": "A21U C76G", "polymerase ribozyme fitness (log ratio)": "≤ -4.2"},
      {"variant": "A21C G50C C63U C93G", "polymerase ribozyme fitness (log ratio)": -1.78},
      {"variant": "A20U G62C G94A", "polymerase ribozyme fitness (log ratio)": -3.04},
      {"variant": "A21U C96U C108U C132A", "polymerase ribozyme fitness (log ratio)": "≤ -4.2"},
      {"variant": "A20U G58C C85U A98U C129U U134C", "polymerase ribozyme fitness (log ratio)": -1.85},
      {"variant": "A20U G59A C93A", "polymerase ribozyme fitness (log ratio)": -4.07},
      {"variant": "A20G C85G", "polymerase ribozyme fitness (log ratio)": -2.92},
      {"variant": "A20G C85A", "polymerase ribozyme fitness (log ratio)": -2.13},
      {"variant": "A20G C57U C99A C108U", "polymerase ribozyme fitness (log ratio)": "≤ -4.2"},
      {"variant": "A20G A21C G92A C108G", "polymerase ribozyme fitness (log ratio)": "≤ -4.2"},
      {"variant": "A21U G84A G141A", "polymerase ribozyme fitness (log ratio)": 0.99},
      {"variant": "A20U U45A G124A", "polymerase ribozyme fitness (log ratio)": -3.98},
      {"variant": "A22C C57A C118U", "polymerase ribozyme fitness (log ratio)": -1.03},
      {"variant": "A20U A41U C63A A106G U145A", "polymerase ribozyme fitness (log ratio)": -2.83},
      {"variant": "A21U A39C U90C C95U A97U", "polymerase ribozyme fitness (log ratio)": "≤ -4.2"},
      {"variant": "A21U C57A A89U", "polymerase ribozyme fitness (log ratio)": -0.571},
      {"variant": "A20U G48U U61G C85G", "polymerase ribozyme fitness (log ratio)": "≤ -4.2"},
      {"variant": "A20C U31C A41C U55A C79A C99A C125G", "polymerase ribozyme fitness (log ratio)": "≤ -4.2"},
      {"variant": "A21G C85A", "polymerase ribozyme fitness (log ratio)": -1.12},
      {"variant": "A21G C85U", "polymerase ribozyme fitness (log ratio)": -0.132},
      {"variant": "A20G A21U G59C C69A A98G U109A", "polymerase ribozyme fitness (log ratio)": "≤ -4.2"},
      {"variant": "A20G A41G C54U U56A C93G A120G U139G", "polymerase ribozyme fitness (log ratio)": -2.99},
      {"variant": "A22C A41C G50A A115G", "polymerase ribozyme fitness (log ratio)": -3.63},
      {"variant": "A20C C57U G59C G62C G124A", "polymerase ribozyme fitness (log ratio)": -0.9},
      {"variant": "A20U A47U G70C G80C C85G C93A C108U A122G U144G", "polymerase ribozyme fitness (log ratio)": "≤ -4.2"},
      {"variant": "A20U A41C G50A G141A", "polymerase ribozyme fitness (log ratio)": -4.03},
      {"variant": "A20G U77A C85U C105U U135A A138G", "polymerase ribozyme fitness (log ratio)": "≤ -4.2"},
      {"variant": "A21C U45A A64G G92A", "polymerase ribozyme fitness (log ratio)": -3.46},
      {"variant": "A20G C36U A119U A120C C129U A142G", "polymerase ribozyme fitness (log ratio)": -4.1},
      {"variant": "A20G A26U", "polymerase ribozyme fitness (log ratio)": -2.24},
      {"variant": "A21U U55A", "polymerase ribozyme fitness (log ratio)": -0.879},
      {"variant": "A20U C96G", "polymerase ribozyme fitness (log ratio)": -0.585},
      {"variant": "A21U G62A", "polymerase ribozyme fitness (log ratio)": 0.138},
      {"variant": "A20G G25C G58C A106U", "polymerase ribozyme fitness (log ratio)": -3.93},
      {"variant": "A20U G42U U90G C96A G117A A137U", "polymerase ribozyme fitness (log ratio)": "≤ -4.2"},
      {"variant": "A21G G88A U90C U127C U135G C149U", "polymerase ribozyme fitness (log ratio)": "≤ -4.2"}
    ]}
  ]
}
